B1: mScarlet-Elp456 (Drosophila) (complex)
chain 1: MTSFRKRTVQKPIRGTRTSPHTAQVITSSGNPYLDVVIGGGLPMGSICLIEEDRFMTHAKVLAKYFLAEGVISKQEIFLGSLDDIPAEMLRRLPRPLTDQESMEQSEVQALGDAGAENGLRIAWRYNDLPLVNSEHATAKIGHHFNLMEQMDSMMLYNVKTTLWDDSPKHLDIVIDEEFSKSSSPTTPSLEQQPVEDAPPIPGTETAPQEKMPAQEEENSANNNNNNNNNSSSVTSSTKTGSQDSPLQVFHNPRYKGLLNDIQQLLRNESFVAGTKNNLCRVCLTSLGSPLWYDEHFGEDLIKFLTLLMASVRNCNSVCLITMPMHLIAKYDASLVPKIRQLVDYAIELESFAGSERETHPAFKEYSGLLHLHKMSAINTLAVHMPETPDLAFKLRRKKFIIEKFHLPPELQESSAKPDNCISGLLSNSNATASLDF
chain 2: MLSNLVVTKQKVVLVIDELNRERIAPKFIGSLLHEQGQGADTIKALPTGVSLKHVATFEALIDKYANNNTGSTTDSNSTGFNVILPTLADLLCYQTPAFIFGFLNRLRRSDNVRRVFLWASPQHLQDPHADYILAGCEYLAELVLRLESDKLLSLISRKPGGGVSNRRYSCEVSKTQFKVTPLDGGLPAGASPKQPSPEAEQTTEPASSTFKIELDEDEVLARNALTLPYERTSEPSEGNIIYTPDADDDFDEEDPDEDLCI
chain 3: MATSVLLACGLNEQKLPGFVHISEESNVDASFLISCVLGQRLRISNAGTLLVCLQHHYQHYFNAGMRLGYNTNIFQGKTLGVIDVLSDMAGEGLASKWLTNTEGQTLTDQLVEDIRAQVERNYASRNSYTVLIDNLSILFNLGASKLQVQQFCQDLAALGKEREKLTVITKLSNSDIYQLTDNNVAKLGQVRIQVLRLKSGVFREVDGKLLIERVLDEGNYACEETRKEVLYKVNDRNVKVFAPGEIGVKV
notes: Elp4, Drosophila melanogaster; Elp5, Drosophila melanogaster; ORF; Elp6, Drosophila melanogaster; put on Elp4 here by the name only (surmised); source: E. coli BL21 (DE3) Rosetta2, purified (Glutathione Sepharose, TEV elution, Superdex 200); not shown: GST, N-terminal, cleaved; copies: 2 + 2 + 2
B2: eGFP-Elp456 (Drosophila, wild type) (complex)
chain 1: B1 chain 1
chain 2: B1 chain 2
chain 3: B1 chain 3
notes: Elp4, Drosophila melanogaster; Elp5, Drosophila melanogaster; ORF; Elp6, Drosophila melanogaster; it is put on Elp4 here only by the name eGFP-Elp456 (surmised); also called eGFP-Elp456 (WT); source: E. coli BL21 (DE3) Rosetta2, purified (Glutathione Sepharose, TEV elution, Superdex 200); not shown: GST, N-terminal, cleaved; copies: 2 + 2 + 2
B3: recombinant Drosophila α1β1-tubulin heterodimers (His6-PC-tubulin α1 84B with co-purified tubulin β1 56D) (complex)
chain 1: MRECISIHVGQAGVQIGNACWELYCLEHGIQPDGQMPSDKTVGGGDDSFNTFFSETGAGKHVPRAVFVDLEPTVVDEVRTGTYRQLFHPEQLITGKEDAANNYARGHYTIGKEIVDLVLDRIRKLADQCTGLQGFLIFHSFGGGTGSGFTSLLMERLSVDYGKKSKLEFAIYPAPQVSTAVVEPYNSILTTHTTLEHSDCAFMVDNEAIYDICRRNLDIERPTYTNLNRLIGQIVSSITASLRFDGALNVDLTEFQTNLVPYPRIHFPLVTYAPVISAEKAYHEQLSVAEITNACFEPANQMVKCDPRHGKYMACCMLYRGDVVPKDVNAAIATIKTKRTIQFVDWCPTGFKVGINYQPPTVVPGGDLAKVQRAVCMLSNTTAIAEAWARLDHKFDLMYAKRAFVHWYVGEGMEEGEFSEAREDLAALEKDYEEVGMDSGDGEGEGAEEY
chain 2: MREIVHIQAGQCGNQIGAKFWEIISDEHGIDATGAYHGDSDLQLERINVYYNEASGGKYVPRAVLVDLEPGTMDSVRSGPFGQIFRPDNFVFGQSGAGNNWAKGHYTEGAELVDSVLDVVRKEAESCDCLQGFQLTHSLGGGTGSGMGTLLISKIREEYPDRIMNTYSVVPSPKVSDTVVEPYNATLSVHQLVENTDETYCIDNEALYDICFRTLKLTTPTYGDLNHLVSLTMSGVTTCLRFPGQLNADLRKLAVNMVPFPRLHFFMPGFAPLTSRGSQQYRALTVPELTQQMFDAKNMMAACDPRHGRYLTVAAIFRGRMSMKEVDEQMLNIQNKNSSYFVEWIPNNVKTAVCDIPPRGLKMSATFIGNSTAIQELFKRISEQFTAMFRRKAFLHWYTGEGMDEMEFTEAESNMNDLVSEYQQYQEATADEDAEFEEEQEAEVDEN
modifications: the paper calls this tubulin highly modified (polyglutamylated, acetylated and partially detyrosinated)
notes: tubulin α1 84B, Drosophila melanogaster, codon-optimised gene; tubulin β1 56D, Drosophila melanogaster, endogenous, co-purified with the tagged α chain; also called recombinant Drosophila tubulin; PC-α-Tubulin; source: D.mel-2 (S2) cells stably transfected (pMT Puro), purified (Protein C resin, Superdex 200); also in S2 cell lysate; not shown: His6, N-terminal, kept; PC, N-terminal, kept

Assay [1] addresses B2. The assay can be described thus: MST; Monolith X, 25 °C; eGFP-Elp456 (WT or mutated) constant at 50 nM, tubulin or Elp123 in twofold dilution series; binding buffer with 0.05% Tween-20.
The target of assay [2] is eGFP-Elp456 solo (Drosophila, three point mutations in each subunit) (Drosophila) (UniProt Q9VMQ7). Described as above.
For assay [3], the target named is microtubules assembled from porcine brain tubulin (pig, UniProt Q2XVP4 1-451, rhodamine, AMCA, HiLyte 647 or biotin on part of the tubulin, by experiment). As to the kind of experiment: TIRF microscopy of decorated microtubules; GMPCPP-stabilized microtubules settled on passivated glass, proteins added one after the other in BRB80 imaging buffer; 100 nM 488-SNAP-Elongator or 488-SNAP-Elp123, 500 nM mScarlet-Elp456, 15 µM 647-GTP-Tubulin. The note with it: both partners purified.

The target in assay [4] is T1, Elp123 subcomplex (Drosophila Elp1, Elp2 and His6-PC-SNAP-Elp3) (Drosophila melanogaster, UniProt Q9VGK7 1-1252; Q7K4B3 1-794; Q9VQZ6 1-552, Alexa Fluor 488 on the SNAP tag).
T1 construct: Elp1, Drosophila melanogaster, codon-optimised synthetic gene, untagged; Elp2, Drosophila melanogaster, codon-optimised synthetic gene, untagged; Elp3, Drosophila melanogaster, codon-optimised synthetic gene; Elutes at about 600 kDa, a dimer of Elp1-Elp2-Elp3 protomers; source: Sf9, baculovirus (biGBac pBig1a), purified (Protein C resin, heparin, Superose 6); not shown: His6, N-terminal, kept; …
As to the kind of experiment: MST; Monolith X, 25 °C; eGFP-Elp456 (WT or mutated) constant at 50 nM, tubulin or Elp123 in twofold dilution series; binding buffer with 0.05% Tween-20. The settings on record: both partners purified.

Assay [5] addresses B2. The assay can be described thus: MST; as a11, with 100 µM tRNA (and 2.5 mM MgATP by the legend) in the buffer of both partners. The settings on record: both partners purified.

The results in this text go back to paper PMC11876699, “Elongator is a microtubule polymerase selective for polyglutamylated tubulin” (The EMBO Journal, 2025).

Some results are limits rather than exact numbers.

The Kd is the concentration at which binding is half-saturated. A lower Kd goes with a tighter complex.

T1 sequence (Q9VGK7 whole entry, chain 1 of 3): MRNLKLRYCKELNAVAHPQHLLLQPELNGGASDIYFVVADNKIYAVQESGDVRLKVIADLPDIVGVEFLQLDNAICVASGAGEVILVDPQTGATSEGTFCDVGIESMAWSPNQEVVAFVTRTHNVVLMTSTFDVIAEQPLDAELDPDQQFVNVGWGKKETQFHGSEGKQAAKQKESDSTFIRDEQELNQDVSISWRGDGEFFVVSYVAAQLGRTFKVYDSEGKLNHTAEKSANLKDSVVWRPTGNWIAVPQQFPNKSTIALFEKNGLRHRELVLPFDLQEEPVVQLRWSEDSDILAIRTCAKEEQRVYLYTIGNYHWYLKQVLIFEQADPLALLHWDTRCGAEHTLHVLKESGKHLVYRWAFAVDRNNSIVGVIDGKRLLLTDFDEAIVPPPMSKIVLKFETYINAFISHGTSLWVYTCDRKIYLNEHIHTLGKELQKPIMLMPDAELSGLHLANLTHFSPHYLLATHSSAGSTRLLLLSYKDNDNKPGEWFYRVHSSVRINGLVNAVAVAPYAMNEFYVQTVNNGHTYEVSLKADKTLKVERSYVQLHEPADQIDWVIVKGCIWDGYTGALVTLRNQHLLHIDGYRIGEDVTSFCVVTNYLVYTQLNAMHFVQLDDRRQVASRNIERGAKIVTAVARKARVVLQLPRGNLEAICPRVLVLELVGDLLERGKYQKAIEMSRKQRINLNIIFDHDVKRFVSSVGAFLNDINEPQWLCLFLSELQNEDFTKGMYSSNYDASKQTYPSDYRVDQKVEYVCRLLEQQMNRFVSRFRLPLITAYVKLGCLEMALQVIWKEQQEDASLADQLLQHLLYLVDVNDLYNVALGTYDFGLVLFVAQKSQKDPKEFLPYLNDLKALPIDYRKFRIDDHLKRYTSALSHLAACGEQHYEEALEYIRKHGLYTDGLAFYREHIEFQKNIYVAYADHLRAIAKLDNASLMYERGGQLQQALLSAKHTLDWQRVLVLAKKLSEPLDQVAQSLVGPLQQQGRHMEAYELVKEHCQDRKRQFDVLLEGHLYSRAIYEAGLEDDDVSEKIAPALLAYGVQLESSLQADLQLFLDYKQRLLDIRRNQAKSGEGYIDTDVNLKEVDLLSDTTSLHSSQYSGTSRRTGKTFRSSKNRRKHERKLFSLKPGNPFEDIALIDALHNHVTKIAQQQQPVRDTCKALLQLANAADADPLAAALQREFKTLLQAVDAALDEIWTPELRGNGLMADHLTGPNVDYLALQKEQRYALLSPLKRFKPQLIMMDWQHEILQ
T1 sequence (Q7K4B3 whole entry, chain 2 of 3): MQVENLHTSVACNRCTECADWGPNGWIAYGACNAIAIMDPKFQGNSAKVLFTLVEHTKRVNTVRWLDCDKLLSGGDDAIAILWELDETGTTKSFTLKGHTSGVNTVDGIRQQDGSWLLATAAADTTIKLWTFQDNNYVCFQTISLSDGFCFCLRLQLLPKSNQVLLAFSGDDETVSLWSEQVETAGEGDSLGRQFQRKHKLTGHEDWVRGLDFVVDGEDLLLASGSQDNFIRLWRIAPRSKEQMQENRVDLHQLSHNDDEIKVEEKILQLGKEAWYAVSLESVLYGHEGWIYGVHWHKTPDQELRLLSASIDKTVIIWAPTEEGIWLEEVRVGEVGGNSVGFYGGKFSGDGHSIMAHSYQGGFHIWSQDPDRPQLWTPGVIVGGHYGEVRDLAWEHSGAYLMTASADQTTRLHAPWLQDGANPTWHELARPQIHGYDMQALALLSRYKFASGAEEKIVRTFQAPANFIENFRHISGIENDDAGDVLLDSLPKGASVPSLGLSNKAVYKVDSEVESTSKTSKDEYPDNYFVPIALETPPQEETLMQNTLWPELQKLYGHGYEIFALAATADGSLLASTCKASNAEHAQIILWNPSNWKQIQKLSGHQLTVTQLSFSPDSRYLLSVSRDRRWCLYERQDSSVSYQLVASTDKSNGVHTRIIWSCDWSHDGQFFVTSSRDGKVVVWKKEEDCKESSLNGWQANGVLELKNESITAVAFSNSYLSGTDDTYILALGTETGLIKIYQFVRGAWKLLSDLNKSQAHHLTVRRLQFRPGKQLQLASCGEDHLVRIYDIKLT
T1 sequence (Q9VQZ6 whole entry, chain 3 of 3): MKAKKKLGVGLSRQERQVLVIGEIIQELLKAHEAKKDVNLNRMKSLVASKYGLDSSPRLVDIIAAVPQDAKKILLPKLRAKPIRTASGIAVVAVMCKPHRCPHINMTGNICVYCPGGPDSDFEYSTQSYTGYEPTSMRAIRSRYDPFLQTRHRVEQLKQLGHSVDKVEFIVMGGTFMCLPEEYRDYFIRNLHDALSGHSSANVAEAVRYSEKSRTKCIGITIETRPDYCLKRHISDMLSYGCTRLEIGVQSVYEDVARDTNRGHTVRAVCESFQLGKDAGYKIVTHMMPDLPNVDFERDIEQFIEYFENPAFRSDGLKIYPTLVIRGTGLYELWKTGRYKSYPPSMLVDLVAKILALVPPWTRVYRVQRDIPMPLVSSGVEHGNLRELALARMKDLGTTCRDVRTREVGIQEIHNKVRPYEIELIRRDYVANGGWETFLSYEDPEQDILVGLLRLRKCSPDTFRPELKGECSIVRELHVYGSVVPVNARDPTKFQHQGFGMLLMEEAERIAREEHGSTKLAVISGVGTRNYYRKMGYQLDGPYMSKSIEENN

“de-tyrosinated HeLa S3 tubulin (treated with carboxypeptidase A) (from UniProt P68363 1-451; P07437 1-444) (complex)”: the Kd in assay [1] is above 22000 nM. The molecule “Elp123 subcomplex (Drosophila Elp1, Elp2 and His6-PC-SNAP-Elp3) (from UniProt Q9VGK7 1-1252; Q7K4B3 1-794; Q9VQZ6 1-552)” gave a dissociation constant (Kd) in assay [2] of 67.1 nM.

“pig brain tubulin (free GTP-αβ-tubulin heterodimers) (from UniProt Q2XVP4 1-451; P02554 1-445) (complex)” gave a dissociation constant (Kd) in assay [1] of 1800 nM. This lies in the single-digit micromolar range.

In assay [1], “tubulin purified from HeLa S3 cells (from UniProt P68363 1-451; P07437 1-444) (complex)” displayed a Kd of 21200 nM. This Kd is about 12-fold higher than that of the molecule before. The molecule “tubulin purified from TTLL1/7-double KO mouse brain (lacking polyglutamylation) (from UniProt P68369 1-451; Q7TMM9 1-445) (complex)” showed a Kd in assay [1] above 25000 nM. As for B1, the “fold less fluorescence intensity on microtubules without Elp123 than with it” value in assay [3] came out at 9.3 fold. Regarding B2, in assay [4], binding was put at a Kd of 15.5 ± 3.7 nM. Consider B3, for which the equilibrium dissociation constant (Kd) in assay [5] turned out to be 2900 nM; in assay [2], 1600 nM; in assay [1] (both partners purified), 1200 nM.
